Assay: soluble on expression in E. coli; label from the status in PepcDB or PDB records

Sequence | soluble on expression in E. coli
MKKNDLSALQENCFCFCDEEISREAPFQVPIDFPEGFKVDTAEASAAVTWSTDNLSCISEPCLIQTGPEPEDIGVRYAVRVQGTITLLVSVSPVRNQYGQGDGAVSVIHTEEIDQVVYYAAQSGRCPDFSQITVEDLLIVPPFYGSPLTVAGTLVLPPSPDPQSYVFTANTGDSTVSVIDADLNTVVKTIPFSDVPTNLGVTFDKAFTYVLHGNTNLVSVIDNKTLTIINTITVGGGPRKIEFDPTDEFAYVMAAGSIYVINTASQSVIDVIPIPGALDFALDPNGQYVYTANGSSWSVDKYDVNTGQLVESIIDTFEFPSLITTPYAGNFAYVLNGELWPKGVTEISLSPLSRGGDFSRLFETLRTIVFSLDSTRAYFLEPYSEPFLINNLYVVNTARQRIIANVSLPGAFDLAVTPDKQYIYAAQPNDNAVTVYRTSDYTAVTVIPVGAGPSAIAMLEHHHHHH | not soluble
MSGFKWSPDQKWISFLAVPTASWSADSNTLCLVRADGSRFEKVDQMLLNAQWFQWAPSKNILAYIEGSGRVALENKHLKVKELPALQQNIFTPKGYVDWDFVWKNDRVIIVSRAKEAGIETPPEKRPLPSLYEVDSTSNAQHQITKKTNKQGDYHPIFMKKSNQLIWIRSDRKKADVWLAHKDRKQEKKWIENIDVPAWYYEKWNWGNVISVKEELEHHHHHH | not soluble
MKHYTVAINGLPQEFEGFTILHLTDLHAKKYGDQQDKLIRLINRQNFDMVAMTGDFIDKDNPDLEPTLELIQGLAAKPIFFVPGNHEWRYDFSIKSSLEEHGVKILDNKNAELARGDARLWIAGVDDPYLHRDKLEEALHGIADAQPKLLLAHAPNIFKPAAESGVELVLVGHTHGGQVRLPLIGAIVAPGQGLFPQYDYGHFTAGSTNMIVNGGLGESTLPLRFCSRPEIVLVKLVSAPLEHHHHHH | not soluble
MAHHHHHHMADDEPEYREAANPIEAFIDCARYDEPGDAEALRTLLSNSPSFLNSQDEQGRTALHVAAANGRLKVLETLLGYNPTPDVPNNEGNTALHFAALNNQTAAARLLLRHGWRASARNAFNKTPIQLIYGKQFEDMELLLLGHDDELEQFSGQASQAARGPAVVNEATVQQQPAVEAERATNAEQPRVNPVQKEQESDPTTLLGSVGVDEIE | soluble
GMPQPTVLLLARADLSPVGTEFTTGPIDAHDPFDSGRRTAFVDEQGIAAGIVEFGTALSVEAYPYTEMLVMHRGSVTLTSGTDSVTLSTGESAVIGRGTQVRIDAQPESLWAFCASTQASGPDKSGITALDRLALLTPSSPPDPSIMISPLPQCRSNNLFEDTASTLRIGVWDSTPYERISRPHKIHELMNLIEGRVVLSLENGSSLTVNTGDTVFVAQGAPCKWTSTGYVRKFYAVT | soluble
MGSDKIHHHHHHMAVVDEAKLRYLDFLSREDRVRHHRYVEEMKQYDMMRSGDINAIAESTRLWNSGLYGYLSDDPLKNAKYRFVTTITLATRFAIEGGMDEEDAYNASDLYIQNLENCKTPDDVRRLHTDMMTFFTWAMADMQKAETHSKAVNECLDYIHYHLHEKITVPILAEHVHLNPTYLSELFKRETGTAISQYITDKRMEAAENMLKYSEYSFDEIAQILAYRSQSHFSKVFKKHSGMTPGEYRTKYAQNGIWPE | not soluble
MSLKAIQFDLSIPKYALSKAMGKMNSSLYVESPFSCLQLRDVEKPALPNDHWVEIKVKYGGICGSDLNLIFLNDSPATSPFVSFPFTLGHEMVGTISKARKSVTNLQVGQRVVIDPLLSCEVRGITPVCSECANGNYNLCHHMNDGDIAPGLLTGTCKDTGGSWGRYLVAHQSQVISLPSSVDDDNGVLVEPFACALHAVLQNRPKPSDTVFVIGSGVIGICVIAAIRALEIPCKIVTLAKHPFQAELAKQFGADEIVFLSRKRDYVTAVAESFNANVLHPVFGEPIVHGGADIVYECVGNRKSLHDSLRFARKGGKVVLIGLASFIDNLDMTMIWLNELEVKGSFTYGMEDWQGGKKRTLQIAVDLIADGKVDLSPLITHRFPLEAYREALATAANKKKGQTMKVVFEEGHHHHHH | not soluble
VKMIFIFIDGFGIGKEDASVNPLANPELPNINYILNKAGAIPTDACLDVPGLPQSATGQTTIFTGQNASKVLSRHLHGQPTITLKKMIIENNLFKELIKRGFSVTNSNVYRTPYIEKIKDPKERKYRPSVTTVMTLSCGLNLRTVEEYITGDGVYHDIIGEILKNEGYVEELITPREAAQRLYSLSRKYDFTLFEYFVTDILGHKMEMEEAVEKLKILDAFLGELLNLYNEDEDIIFITSDHGNIEDLTVNTHTFNKVPTVILGKIPENVEIEINSLTDIMPTILKIFDAKGEL | soluble
MGSDKIHHHHHHMETFHLTRNEMATLLLSLRGWNTKKPLGILQEAWAKSHKKDIESGQSVTAFITTALSPIFEKLIKIDDTDVGFSLNEIVALGNQIENTSFSVTAMQNWVKRDIKEMIGSPQKGKKYSIEQAALLFIVEDLKTALDFESIRKLLRLIVNDPADRSDDLINPVHLYGAYSSLFEELNQGNCLQLNATDTIHTIENIVKERADKIASKFDQVNNEQREAIRNAIIIATLSVHTAYVQMLAKRYVTATLFLQNLDVKP | not soluble
MTAKPLPIFLLPISAIRKAMEQMSFAELLIISILSKNAKDFVTLLTKPLKNMIISVDCWLSLKLVTASSELYLLYFKRKQRVRIEKSPYDKRYKKLYLPGFTEKQWIGHIVRVFSHNNGIVLSLKPLFSFRRGKIKETVELFKGLNVRKLVNHDSRIENRQLLKLFPTPNYLRLSNDYICESILVQNFETLELLEKKLSLNDILTTNCTNLEIHYQSLSDRNLNLFMKHWIRGSNPNLQSICVNFSREMRSFGAEVFKGIDHRKTIPQENFYWGKH | not soluble
MGSDKIHHHHHHMKISICGKGGCGKSSITTLLAKEFAKKGHNVLVIDGDESNLSLHKLLGMDLPKDFIEYLGGRKEFMKKLREKMDGKEVELFEGEISIDSLPKEYLVEKDNIKLLAIGKIHDFGEGCACPMGALLREFLKSLKLKDKEVVIVDTEAGIEHFGRGVEGGCDVIIAIIDPTYESIRLSKKIEEIGEKLGKKVYFIVNKVDDETKDLILENVNKDKVIAVIPNNKEIMKCGLMGEELNAELSEIKDVVEILTK | not soluble
MAGWNLEPEYTSLARDFGSLDAVFALQGQQLTRDPLSDVIRVERAGVYYFVKRYVGAGKGLRRYMGKPRVKSEWQNLKRFAKWGIPTAEVVAWGLERNGAAYDRGALITRGLPNTEDLSALAQRKDPRLADRQWVDGISRQLAAYTRIMHDNHFTHNDLKWRNLLVDNEDRLFFIDCPNGAFWWSFMLRYRITKDLACLDKVAKYHLSATQRLRFYLQYRQRARLNAADKKRIRHIVSFFEGRE | not soluble
MFKRVGIFVALVTLSLIFNQPATAGRTVEDFQVWGNITALGNFGFVNPGNPDLKKFRWWMEGQGRFGNDSSQFTQAIIRPGLGYAITDKIIIWAGYAWIPSDEPLVPKSGLPFDEHRIWQQVTWADEFSFGKLSLRSRFEQRFFDHNAPVSGSDDVAYRFRQLVKLAIPVAMIDPNLTFIIQNELFIGLNTVSNPGFISRGFDQNRAFVGLGYKVHQNATVELGYMNQFIDRRHNPRPDQMMHNFAVNLFLNF | not soluble
MDFELCPKFEKTFSILGKKWNGLIIDVLLEDGPQRFKNLARRIPKCSDRVLVVRLKELEENGIVSRVTHCDSALIEYRLTTKGQDLRQVMDTVHNWSDKWFSPAES | not soluble
MSKHVNWSGVFPAVTTQFNADFSVNLEETHTVISNLVRDGVSGLVVCGSVGENTSLTIEEKMAVTEVAKDASGGRVPVICGIAEFTSAGAAKVAKAVERVGVDGIMVMPALVYSSKPHETAEHFRSVASGTDLPVMVYNNPPIYRNDVTPDILVSLADCENIVCFKDSSGDTRRFIDVRNQVGERFILFAGLDDVVLESVAVGAQGWISGMSNVFPKEGETIFRLARAGRFAEAMPIYEWLMPILHLDARPDLVQCIKLCEQLAGRGSALTRPPRLALRGADREHVERIMAKALASRPALPDVGL | not soluble
MGSDKIHHHHHHMRIQQLRYLEKIATTGSINEAAKQLFISQPSLSQAMKELEKEYQVQLFYRHKTGITLTDAGREFINYSRSVLDQVNLLNEHFGQGTVRKRIFSVSAQHYAFVVNAFVELVKEIGGDTYQFTLRETETANVLNDVQTLKSELGVIYLNKFNQTVLSRLIADKDLSFVPLFEARPHVFVGRDNPLTHKQDLTLDDLRDYPYLSYEQGDTSSFYFAEEILSTLPHKKHIRISDRATIFNLMVGLNGYTISSGIISSELNDEKIVAIPLKVDDAMTLGYLRHKKIELSATAQRYLTLLKQHIQGYGFDVFNDN | not soluble
MGHHHHHHSHMVNKNAGETLLQRAARLGYEEVVLYCLENKICDVNHRDNAGYCALHEACARGWLNIVRHLLEYGADVNCSAQDGTRPLHDAVENDHLEIVRLLLSYGADPTLATYSGRTIMKMTHSELMEKFLTDYLN | not soluble
SKNPHLPQPVRVTVGPNAPPVFGMFYPDRYMVGVDCILVDGMFVSRSRFEKLGGSLMAKWYRSIRVVDTAEPLGAWLERHNLPVFTGKARQRRQRGAPSTN | soluble
MGSDKIHHHHHHMRLTILGSSGSVPAPGNPASGYLLTSPDAPAVIMDMGPGVLAAVQEIQDPADAHVIFSHLHTDHCADFASLMVWRRFHPTLAAKSRNLLFGPEDTPNRLGRLSSDEPDGVDDMSDTFAFDAWEERKPELIDNFTVTPFRVVHPIETYALRVEEHRTGASITYSGDSAYTEALIDAARNVDIFLCEATWGTSCDDKAPGMHMCGQDAGRIAAAAGVKKLIITHVPPWIDAEATVAAAAEHFDGPIELARSGMVIEF | not soluble
GMLDNAIPQGFEDAVELRRKNRETVVKYMNTKGQDRLRRHELFVEDGCGGLWTTDTGSPIVIRGKDKLAEHAVWSLKCFPDWEWYNIKVFETDDPNHFWVECDGHGKILFPGYPEGYYENHFLHSFELDDGKIKRNREFMNVFQQLRALSIPVPQIKREGIPT | soluble
MHSGAYFFYAAPRAGTAGKQAMPIEGIDYRLVFASDVNPRDGLGLECWRGEQPLFEVFRDDVGRRFVVNLFASDVPLELLEAIIPTARRELGDFPRRSASRGVAKPG | soluble
MGSSHHHHHHSSGRENLYFQGPSNSDAAHAFWSTQPVPQTEDEDEKIVFAGPMDEPKTVADIPEEPYPIASTFEWWTPNMEAADDIHAIYELLRDNYVEDDDSMFRFNYSEEFLQWALCPPNYIPDWHVAVRRKADKKLLAFIAGVPVTLRMGTPKYMKVKAQEKGEGEEAAKYDEPRHICEINFLCVHKQLREKRLAPILIKEATRRVNRTNVWQAVYTAGVLLPTPYASGQYFHRSLNPEKLVEIRFSGIPAQYQKFQNPMAMLKRNYQLPSAPKNSGLREMKPSDVPQVRRILMNYLDSFDVGPVFSDAEISHYLLPRDGVVFTYVVENDKKVTDFFSFYRIPSTVIGNSNYNLLNAAYVHYYAATSIPLHQLILDLLIVAHSRGFDVCNMVEILDNRSFVEQLKFGAGDGHLRYYFYNWAYPKIKPSQVALVML | soluble
MKTIFSGIQPSGVITIGNYIGALRQFVELQHEYNCYFCIVDQHAITVWQDPHELRQNIRRLAALYLAVGIDPTQATLFIQSEVPAHAQAAWMLQCIVYIGELERMTQFKEKSAGKEAVSAGLLTYPPLMAADILLYNTDIVPVGEDQKQHIELTRDLAERFNKRYGELFTIPEARIPKVGARIMSLVDPTKKMSKSDPNPKAYITLLDDAKTIEKKIKSAVTDSEGTIRYDKEAKPGISNLLNIYSTLSGQSIEELERQYEGKGYGVFKADLAQVVIETLRPIQERYHHWMESEELDRVLDEGAEKANRVASEMVRKMEQAMGLGRRR | soluble
